Experimental data: patent US10704030B2, “P450-BM3 variants with improved activity” (Codexis, Inc., priority 2015, dated 2020)
Residue numbers refer to the chain shown, from its start. Names and notes keep the numbering of the source.

Key:
Format in all cases: biochemical
[1] = Validation of generalist properties: oxidation of diclofenac by lyophilized P450-BM3 variant, UPLC-MS; conditions: [Diclofenac] = 1 mM; for TON: TON = [substrate]*% conversion/[P450]; for FIOPC (F02): fold improvement over parent MCYP-P1.2-F02
How it was run: (§1)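 Lyophilized lysate of E. coli-expressed P450-BM3 variant (stock standardized to 12 μM heme) was incubated 24 h at 30 °C with 1 or 2 mM substrate, 1.0 mM NADP+, 25 mM glucose, 0.5 mg/mL glucose dehydrogenase and 5% DMSO in 100 mM potassium phosphate. Acetonitrile-quenched samples were analyzed by UPLC-MS (positive ESI).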

[2] = Validation of generalist properties: oxidation of loratadine by lyophilized P450-BM3 variant, UPLC-MS; conditions: [Loratadine] = 1 mM; for TON: TON = [substrate]*% conversion/[P450]; for FIOPC (F02): fold improvement over parent MCYP-P1.2-F02
How it was run: as §1

[3] = Validation of generalist properties: oxidation of imatinib by lyophilized P450-BM3 variant, UPLC-MS; conditions: [Imatinib] = 1 mM; for TON: TON = [substrate]*% conversion/[P450]; for FIOPC (F02): fold improvement over parent MCYP-P1.2-F02
How it was run: as §1

[4] = Validation of generalist properties: oxidation of gefitinib by lyophilized P450-BM3 variant, UPLC-MS; conditions: [Gefitinib] = 1 mM; for TON: TON = [substrate]*% conversion/[P450]; for FIOPC (F02): fold improvement over parent MCYP-P1.2-F02
How it was run: as §1

[5] = fold improvement over parent MCYP-P1.2-D06

B1: SEQ ID NO:16: P450-BM3 parental backbone from the commercially available MCYP panel (MCYP-0343; Codexis) (protein)
chain: MTIKEMPQPKTFGELKNLPLLNTDKPVQALMKIADELGEIFKFEAPGCVTRYLSSQRLIKEACDESRFDKNLSQALKFARDFLGDGLVTSWTHEINWKKAHNILLPSFSQQAMKGYHAMMVDIAVQLVQKWERLNADEHIEVSEDMTRLTLDTIGLCGFNYRFNSFYRDQPHPFIISMVRALDEVMNKLQRANPDDPAYDENKRQCQEDIKVMNDLVDKIIADRKARGEQSDDLLTQMLNGKDPETGEPLDDGNISYQIITFLIAGHETTSGLLSFALYFLVKNPHVLQKVAEEAARVLVDPVPSYKQVKQLKYVGMVLNEALRLWPTAPAFSLYAKEDTVLGGEYPLEKGDEVMVLIPQLHRDKTIWGDDVEEFRPERFENPSAIPQHAFKPFGNGQRACIGQQFALHEATLVLGMMLKHFDFEDHTNYELDIKETLTLKPEGFVVKAKSKKIPLGGIPSPSTEQSAKKVRKKAENAHNTPLLVLYGSNMGTAEGTARDLADIAMSKGFAPQVATLDSHAGNLPREGAVLIVTASYNGHPPDNAKQFVDWLDQASADEVKGVRYSVFGCGDKNWATTYQKVPAFIDETLAAKGAENIADRGEADASDDFEGTYEEWREHMWSDVAAYFNLDIENSEDNKSTLSLQFVDSAADMPLAKMHGAFSTNVVASKELQQPGSARSTRHLEIELPKEASYQEGDHLGVIPRNYEGIVNRVTARFGLDASQQIRLEAEEEKLAHLPLAKTVSVEELLQYVELQDPVTRTQLRAMAAKTVCPPHKVELEALLEKQAYKEQVLAKRLTMLELLEKYPACEMKFSEFIALLPSIRPRYYSISSSPRVDEKQASITVSVVSGEAWSGYGEYKGIASNYLAELQEGDTITCFISTPQSEFTLPKDPETPLIMVGPGTGVAPFRGFVQARKQLKEQGQSLGEAHLYFGCRSPHEDYLYQEELENAQSEGIITLHTAFSRMPNQPKTYVQHVMEQDGKKLIELLDQGAHFYICGDGSQMAPAVEATLMKSYADVHQVSEADARLWLQQLEEKGRYAKDVWAG
modifications: P450_BM3
With B1 the “% Conv.” value [1] was “++++ (15.01-20.00)”, the TON [1] was “‡‡‡‡ (10000-50000)” and the “% Conv.” value [2] was “+++ (10.01-15.00)”. The TON [2] was “‡‡‡ (5001-10000)”, the “% Conv.” value [3] was “+ (0-5.00)” and the TON [3] was “‡‡ (1001-5000)”. For the same molecule, the “% Conv.” value [4] was “+ (0-5.00)” and the TON [4] was “‡‡ (1001-5000)”.

B2: SEQ ID NO: 14: P450-BM3 parental backbone from the commercially available MCYP panel (MCYP-0343; Codexis) (protein)
chain: MTIKEMPQPKTFGELKNLPLLNTDKPVQALMKIADELGEIFKFEAPGLVTRYLSSQRLIKEACDESRFDKNLSQALKFARDFAGDGLFTSWTHEKNWKKAHNILLPSFSQQAMKGYHAMMVDIAVQLVQKWERLNADEHIEVPEDMTRLTLDTIGLCGFNYRFNSFYRDQPHPFITSMVRALDEAMNKQQRANPDDPAYDENKRQFQEDIKVMNDLVDKIIADRKASGEQSDDLLTHMLNGKDPETGEPLDDENIRYQIITFLIAGHETTSGLLSFALYFLVKNPHVLQKAAEEAARVLVDPVPSYKQVKQLKYVGMVLNEALRLWPTAPAFSLYAKEDTVLGGEYPLEKGDELMVLIPQLHRDKTIWGDDVEEFRPERFENPSAIPQHAFKPFGNGQRACIGQQFALHEATLVLGMMLKHFDFEDHTNYELDIKETLTLKPEGFVVKAKSKKIPLGGIPSPSTEQSAKKVRKKAENAHNTPLLVLYGSNMGTAEGTARDLADIAMSKGFAPQVATLDSHAGNLPREGAVLIVTASYNGHPPDNAKQFVDWLDQASADEVKGVRYSVFGCGDKNWATTYQKVPAFIDETLAAKGAENIADRGEADASDDFEGTYEEWREHMWSDVAAYFNLDIENSEDNKSTLSLQFVDSAADMPLAKMHGAFSTNVVASKELQQPGSARSTRHLEIELPKEASYQEGDHLGVIPRNYEGIVNRVTARFGLDASQQIRLEAEEEKLAHLPLAKTVSVEELLQYVELQDPVTRTQLRAMAAKTVCPPHKVELEALLEKQAYKEQVLAKRLTMLELLEKYPACEMKFSEFIALLPSIRPRYYSISSSPRVDEKQASITVSVVSGEAWSGYGEYKGIASNYLAELQEGDTITCFISTPQSEFTLPKDPETPLIMVGPGTGVAPFRGFVQARKQLKEQGQSLGEAHLYFGCRSPHEDYLYQEELENAQSEGIITLHTAFSRMPNQPKTYVQHVMEQDGKKLIELLDQGAHFYICGDGSQMAPAVEATLMKSYADVHQVSEADARLWLQQLEEKGRYAKDVWAG
modifications: P450_BM3
In the case of B2, the “% Conv.” value [1] is reported as “+ (0-5.00)”, the TON [1] is reported as “‡ (0-1000)” and the “% Conv.” value [2] is reported as “+ (0-5.00)”. For the same molecule, the TON [2] was “‡‡ (1001-5000)”, the “% Conv.” value [3] was “+ (0-5.00)” and the TON [3] was “‡‡ (1001-5000)”. The “% Conv.” value [4] was “+ (0-5.00)” and the TON [4] was “‡ (0-1000)”.

B3: Variant 1: P450-BM3 variant of SEQ ID NO: 14: Y52F; K95P; G115R; T176V; L216Y; D232H; E349T; M491A; T577A; E619D (protein)
chain: B2 chain with Y52F, K95P, G115R, T176V, L216Y, D232H, E349T, M491A, T577A, E619D
modifications: P450_BM3
notes: K95P; G115R; T176V; L216Y; D232H; E349T; M491A; T577A; E619D
In the case of B3, the “% Conv.” value [1] is reported as “+ (0-5.00)”, the TON [1] is reported as “‡‡ (1001-5000)” and the “FIOPC (F02)” value [1] is reported as “**** (10.01-15.00)”. For the same molecule, the “% Conv.” value [2] was “+ (0-5.00)”, the TON [2] was “‡‡ (1001-5000)” and the “FIOPC (F02)” value [2] was “* (0.0-3.0)”. For the same molecule, the “% Conv.” value [3] was “++++ (15.01-20.00)”, the TON [3] was “‡‡‡‡ (10000-50000)” and the “FIOPC (F02)” value [3] was “**** (10.01-15.00)”. The “% Conv.” value [4] was “+ (0-5.00)”, the TON [4] was “‡ (0-1000)” and the “FIOPC (F02)” value [4] was “* (0.0-3.0)”.

B4: Variant 2: P450-BM3 variant of SEQ ID NO: 14: Y52F; G115R; T176V; L216Y; D232H; P347T; E349T; T577A; D722S (protein)
chain: B2 chain with Y52F, G115R, T176V, L216Y, D232H, P347T, E349T, T577A, D722S
modifications: P450_BM3
notes: G115R; T176V; L216Y; D232H; P347T; E349T; T577A; D722S
With B4 the “% Conv.” value [1] was “+ (0-5.00)”, the TON [1] was “‡‡ (1001-5000)” and the “FIOPC (F02)” value [1] was “**** (10.01-15.00)”. The “% Conv.” value [2] was “+ (0-5.00)”, the TON [2] was “‡‡ (1001-5000)” and the “FIOPC (F02)” value [2] was “* (0.0-3.0)”. For the same molecule, the “% Conv.” value [3] was “++++ (15.01-20.00)”, the TON [3] was “‡‡‡‡ (10000-50000)” and the “FIOPC (F02)” value [3] was “**** (10.01-15.00)”. For the same molecule, the “% Conv.” value [4] was “+ (0-5.00)”, the TON [4] was “‡ (0-1000)” and the “FIOPC (F02)” value [4] was “* (0.0-3.0)”.

B5: Variant 13: P450-BM3 variant of SEQ ID NO: 12: K32R; C48S; Y52F; I95P; G115R; D232H; M491A; N574T; T577A; E619D; A627S; D722S (protein)
chain: MTIKEMPQPKTFGELKNLPLLNTDKPVQALMRIADELGEIFKFEAPGSVTRFLSSQRLIKEACDESRFDKNLSQALKFSRDFAGDGLFTSWTHEPNWKKAHNILLPSFSQQAMKRYHAMMVDIAVQLVQKWERLNADEHIEVSEDMTRLTLDTIGLCGFNYRFNSFYRDQPHPFIISMVRALDEVMNKLQRANPDDPAYDENKRQCQEDIKVMNDLVDKIIADRKARGEQSHDLLTQMLNGKDPETGEPLDDGNISYQIITFLIAGHETTSGLLSFALYFLVKNPHVLQKVAEEAARVLVDPVPSYKQVKQLKYVGMVLNEALRLWPTAPAFSLYAKEDTVLGGEYPLEKGDEVMVLIPQLHRDKTIWGDDVEEFRPERFENPSAIPQHAFKPFGNGQRACIGQQFALHEATLVLGMMLKHFDFEDHTNYELDIKETLTLKPEGFVVKAKSKKIPLGGIPSPSTEQSAKKVRKKAENAHNTPLLVLYGSNAGTAEGTARDLADIAMSKGFAPQVATLDSHAGNLPREGAVLIVTASYNGHPPDNAKQFVDWLDQASADEVKGVRYSVFGCGDKTWAATYQKVPAFIDETLAAKGAENIADRGEADASDDFEGTYEEWRDHMWSDVASYFNLDIENSEDNKSTLSLQFVDSAADMPLAKMHGAFSTNVVASKELQQPGSARSTRHLEIELPKEASYQEGDHLGVIPRNYEGIVNRVTARFGLSASQQIRLEAEEEKLAHLPLAKTVSVEELLQYVELQDPVTRTQLRAMAAKTVCPPHKVELEALLEKQAYKEQVLAKRLTMLELLEKYPACEMKFSEFIALLPSIRPRYYSISSSPRVDEKQASITVSVVSGEAWSGYGEYKGIASNYLAELQEGDTITCFISTPQSEFTLPKDPETPLIMVGPGTGVAPFRGFVQARKQLKEQGQSLGEAHLYFGCRSPHEDYLYQEELENAQSEGIITLHTAFSRMPNQPKTYVQHVMEQDGKKLIELLDQGAHFYICGDGSQMAPAVEATLMKSYADVHQVSEADARLWLQQLEEKGRYAKDVWAG
modifications: P450_BM3
notes: C48S; Y52F; I95P; G115R; D232H; M491A; N574T; T577A; E619D; A627S; D722S
For B5, the “% Conv.” value [1] was “++++ (15.01-20.00)”, the TON [1] was “‡‡‡ (5001-10000)” and the “FIOPC (D06)” value [1, 5] was “*** (5.01-10.0)”. The “% Conv.” value [2] was “+ (0-5.00)”, the TON [2] was “‡‡ (1001-5000)” and the “FIOPC (D06)” value [2, 5] was “* (0.0-3.0)”. The “% Conv.” value [3] was “++++ (15.01-20.00)”, the TON [3] was “‡‡‡‡ (10000-50000)” and the “FIOPC (D06)” value [3, 5] was “*** (5.01-10.0)”. The “% Conv.” value [4] was “+ (0-5.00)”, the TON [4] was “‡‡ (1001-5000)” and the “FIOPC (D06)” value [4, 5] was “**** (10.01-15.00)”.
